# Test results as given in patent US20250084155A1.
# B1: murine 77A in a murine IgG2a format (antibody, V domains shown)
# VH: QIQLVQSGPELKKPGETVKISCKASGYTFTNYGMNWVKQAPGKGLKWMGWINTYTGEPTYADDFKGRFAFSLETSATTAYLQINNLKNEDTATYFCARYDHAMDYWGQGTSVTVSS
# VL: DIVMSQSPSSLAVSAGEKVTMSCKSSQSLLNSGTRKNYLAWYQQKPGQSPKLLIYWTSTRESGVPDRFTGSGSGTDFTLTINSVQAEDLAVYYCKQSYTLYTFGGGTKLEIK
# B2: murine 77A in a murine IgG2b format (antibody, V domains shown)
# VH: QIQLVQSGPELKKPGETVKISCKASGYTFTNYGMNWVKQAPGKGLKWMGWINTYTGEPTYADDFKGRFAFSLETSATTAYLQINNLKNEDTATYFCARYDHAMDYWGQGTSVTVSS
# VL: DIVMSQSPSSLAVSAGEKVTMSCKSSQSLLNSGTRKNYLAWYQQKPGQSPKLLIYWTSTRESGVPDRFTGSGSGTDFTLTINSVQAEDLAVYYCKQSYTLYTFGGGTKLEIK
# B3: h77A-1.32 (antibody, V domains shown)
# VH: QIQLVQSGAEVKKPGASVKVSCKASGYTFTNYGMNWVRQAPGQGLEWMGWINTYTGEPRYADDFKGRFTFTTDTSTSTAYMELRSLRSDDTAVYFCARYDHDMDYWGQGTLVTVSS
# VL: EIVLTQSPDSLAVSLGERATINCKSSQSLLNSGTRKNYLAWYQQKAGQSPKLLIYWTSTRESGVPDRFSGSGSGTDFTLTIDSLQAEDVAVYYCKQSYTLYTFGGGTKVEIK
# Key:
# [1] = target: HSP70-GFP (full-length HSP70 fused to GFP) (human) (UniProt P0DMV8); test: cell-based or functional assay
# HSP70-GFP (full-length HSP70 fused to GFP) (human), sequence (P0DMV8 whole entry, the tested form may be a part): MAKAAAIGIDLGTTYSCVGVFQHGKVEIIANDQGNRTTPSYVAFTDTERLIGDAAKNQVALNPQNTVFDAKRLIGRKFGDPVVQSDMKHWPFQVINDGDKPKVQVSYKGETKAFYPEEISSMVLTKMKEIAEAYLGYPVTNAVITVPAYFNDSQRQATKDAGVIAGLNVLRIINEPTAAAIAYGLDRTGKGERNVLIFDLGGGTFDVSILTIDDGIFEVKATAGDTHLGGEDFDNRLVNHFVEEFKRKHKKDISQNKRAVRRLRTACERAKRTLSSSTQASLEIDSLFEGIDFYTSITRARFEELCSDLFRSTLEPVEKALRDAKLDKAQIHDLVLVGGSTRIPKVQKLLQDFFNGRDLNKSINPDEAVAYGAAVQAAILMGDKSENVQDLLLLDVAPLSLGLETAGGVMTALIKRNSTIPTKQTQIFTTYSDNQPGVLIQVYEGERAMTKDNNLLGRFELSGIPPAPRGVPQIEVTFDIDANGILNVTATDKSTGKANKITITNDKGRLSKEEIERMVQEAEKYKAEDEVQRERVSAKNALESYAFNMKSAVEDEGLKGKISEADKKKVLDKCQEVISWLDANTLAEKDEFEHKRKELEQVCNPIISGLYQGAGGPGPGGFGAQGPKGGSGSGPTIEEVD
# [2] = target: HSP70 (human HSP70; the antigen of the binning, humanization and variant binding assays) (human) (UniProt P0DMV8); test: BLI, anti-human Fc capture, antigen 100 nM
# HSP70 (human HSP70; the antigen of the binning, humanization and variant binding assays) (human), sequence (P0DMV8 whole entry, change not shown): as the sequence (P0DMV8 whole entry, the tested form may be a part) above
binder,measurement,setting,value
B1,"% live cells GFP positive, DC3.2 cells",[1],78.3%
same,"% live cells GFP positive, MH-S cells",[1],66%
B2,"% GFP positivity, DC3.2 cells",[1],4.85%
same,"% GFP positivity, MH-S cells",[1],16%
B3,% Diss,[2],-80.5%
same,X = 610,[2],0.0256 nM
same,X = 1495,[2],0.0462 nM
